Five molecules from patent publication US20200239541A1 (XYPHOS BIOSCIENCES, published 2020) can be followed below.

Experiment [1] has as its target T1, Fc-NKG2D.wt (human).
T1 construct: also called NKG2D.wt Y|Y; natural Fc-NKG2D
Kind of experiment: ELISA, Fc-NKG2D coated, MicAbody titrated; quantitative ELISA of Table 12, fitted EC50 on Fc-NKG2D.wt (20092-fold weaker than on AF).

Experiment [2] addresses T1, Fc-NKG2D.wt. In words: ELISA, Fc-NKG2D coated, MicAbody titrated; quantitative ELISA of Table 12, fitted EC50 on Fc-NKG2D.wt (10802-fold weaker than on AF). (An ELISA detects its analyte on a solid surface through an enzyme-linked reagent.)
For experiment [3], the target named is T1, Fc-NKG2D.wt. In words: ELISA, Fc-NKG2D coated, MicAbody titrated; quantitative ELISA of Table 12, fitted EC50 on Fc-NKG2D.wt (4414-fold weaker than on AF).
Experiment [4] has as its target T2, Fc-eNKG2D15 (Y152F/Y199F) (human).
T2 construct: also called eNKG2D15 F|F
In words: ELISA, Fc-NKG2D coated, MicAbody titrated from 300 nM; ELISA, Fc-eNKG2D15 as capture agent, MicAbody titrated from 300 nM. The protocol:
(§1) The binding affinities of α1-α2 variants to the extracellular domains of natural (wild-type) NKG2D and non-natural eNKG2D proteins were analyzed using a plate-based ELISA method. Each of the SEC fractionated natural Fc-NKG2D and non-natural Fc-eNKG2D fusions were coated overnight at 4° C. onto separate wells of Nunc Maxisorp 96 well plates (Thermo Fisher Scientific, Waltham, Mass.) using a coating concentration of 1 μg/mL in phosphate-buffered saline (PBS). The plates were washed three times in PBS/0.05% Tween-20 (PBS-T) at 20-22° C., and blocked with 0.5% bovine serum albumin in PBS (PBS-B) for 2 hours at 20-22° C. MicAbodies were titrated against the plate-bound natural or non-natural Fc-NKG2D fusions for 60 minutes at 20-22° C. in PBS/0.5% bovine serum albumin (BSA)/0.05% Tween-20 (PBS-BT), washed 3 times with PBS-T at 20-22° C., and the bound bispecific proteins detected using an HRP-conjugated anti-human kappa in PBS-BT (Abcam, Cambridge Mass.) and developed with 1-Step™ Ultra TMB ELISA Substrate Solution (Thermo Fisher Scientific, Waltham, Mass.).

In experiment [5] the target is T1, Fc-NKG2D.wt. In words: ELISA (called Kd in the text). The procedure: as §1
For experiment [6], the target named is T3, Fc-eNKG2D2 (Y152S) (human).
T3 construct: also called eNKG2D2 S|Y; not shown: human IgG1 Fc (without Fab domains)
Kind of experiment: BLI (Octet), Fc-eNKG2D captured on AHC tips, 20 nM MicAbody. The procedure:
(§2) Additional biophysical analysis of eNKG2D variant binding to ligands was also performed with Bio-Layer Interferometry (BLI) using the FortéBio Octet system (all FortéBio LLC, Fremont, Calif.). For these experiments human NKG2D ligands MICA-Fc, MICB-Fc, ULBP1-Fc, ULBP2-Fc, ULBP3-Fc, and ULBP4-Fc were purchased from R&D Systems, Inc. (Minneapolis, Minn.). Ligands in the MicAbody format were captured on anti-human IgG Fc capture (AHC) biosensor tips. After a baselines were established, tips were exposed to a titration series of Fc-eNKG2D fusion proteins ranging from 300 nM to 0.41 nM and association/dissociation kinetics monitored with all steps performed in PBS-BT. Subsequently, Fc-eNKG2D fusion proteins were captured onto AHC tips and MicAbodies were titrated to characterize binding kinetics.
(§3) Binding analysis under the same conditions was then performed with Fc-eNKG2D fusion receptors as the capture agent, and the level of binding for each eNKG2D ranked as a percentage of the maximal binding response established by Fc-NKG2D.wt (Table 2).

The next experiment deals with T4, Fc-eNKG2D1 (Y199F) (human).
T4 construct: also called eNKG2D1 Y|F; not shown: human IgG1 Fc (without Fab domains)
The experiment is described as above. The procedure: as §2, §3

For experiment [7], the target named is T5, Fc-eNKG2D3 (Y152T) (human).
T5 construct: also called eNKG2D3 T|Y
Described as above. The procedure:
as §2, §3

In experiment [8] the target is T6, Fc-eNKG2D14 (Y152L) (human).
T6 construct: also called eNKG2D14 L|Y
The description is as above. The protocol: as §2, §3

For another experiment, the target named is T7, Fc-NKG2D.Y152A (human).
T7 construct: also called eNKG2D A|Y; Fc-NKG2D.YA
The experiment is described as above. The procedure:
as §2, §3

Experiment [9] concerns the target T8, Fc-eNKG2D4 (Y152V) (human).
T8 construct: also called eNKG2D4 V|Y
Described as above. The procedure: as §2, §3

Experiment [10] deals with T3, Fc-eNKG2D2 (Y152S). Kind of experiment: ELISA, Fc-NKG2D coated, MicAbody titrated from 300 nM. The protocol:
as §1

The target in experiment [11] is T5, Fc-eNKG2D3 (Y152T). The experiment is described as above. The procedure:
as §1

The target in experiment [12] is T6, Fc-eNKG2D14 (Y152L). The description is as above. The procedure: as §1
In experiment [13] the target is T8, Fc-eNKG2D4 (Y152V). The experiment is described as above. The procedure:
as §1

In experiment [14] the target is T1, Fc-NKG2D.wt. Described as above. The procedure:
as §1

Experiment [15] concerns the target T9, Fc-eNKG2D13 (Y152E/Y199E) (human).
T9 construct: also called eNKG2D13 E|E
Kind of experiment: ELISA, Fc-eNKG2D coated, MicAbody titrated from 300 nM. The procedure:
as §1

Experiment [16] addresses T10, Fc-eNKG2D12 (Y152D/Y199D) (human).
T10 construct: also called eNKG2D12 D|D
Described as above. The protocol: as §1

Experiment [17] addresses T11, Fc-eNKG2D6 (Y152L/Y199F) (human).
T11 construct: also called eNKG2D6 L|F
The experiment is described as above. The protocol:
as §1

Another experiment addresses T12, Fc-eNKG2D9 (Y152V/Y199F) (human).
T12 construct: also called eNKG2D9 V|F
Kind of experiment: BLI (Octet), Fc-eNKG2D captured on AHC tips, 20 nM MicAbody. The procedure: as §2, §3
On the technique in general: Biolayer interferometry detects binding as a change in optical thickness at a sensor tip.

A further experiment deals with T13, Fc-eNKG2D5 (Y152A/Y199F) (human).
T13 construct: also called eNKG2D5 A|F; Fc-NKG2D.AF
Described as above. The protocol: as §2, §3

In the next experiment the target is T14, Fc-eNKG2D7 (Y152S/Y199F) (human).
T14 construct: also called eNKG2D7 S|F
The description is as above. The procedure:
as §2, §3

The target of a further experiment is T15, Fc-eNKG2D8 (Y152T/Y199F) (human).
T15 construct: also called eNKG2D8 T|F
The experiment is described as above. The procedure: as §2, §3

Experiment [18] concerns the target T2, Fc-eNKG2D15 (Y152F/Y199F). In words: ELISA, Fc-NKG2D coated, MicAbody titrated from 300 nM. The protocol:
as §1

Experiment [19] concerns the target T11, Fc-eNKG2D6 (Y152L/Y199F). Described as above. The protocol:
as §1

What is called EC50 is the midpoint of the concentration-response curve. Lower therefore signals a more potent agent.

T3 sequence (chain, as listed by the source Y152S Y152S): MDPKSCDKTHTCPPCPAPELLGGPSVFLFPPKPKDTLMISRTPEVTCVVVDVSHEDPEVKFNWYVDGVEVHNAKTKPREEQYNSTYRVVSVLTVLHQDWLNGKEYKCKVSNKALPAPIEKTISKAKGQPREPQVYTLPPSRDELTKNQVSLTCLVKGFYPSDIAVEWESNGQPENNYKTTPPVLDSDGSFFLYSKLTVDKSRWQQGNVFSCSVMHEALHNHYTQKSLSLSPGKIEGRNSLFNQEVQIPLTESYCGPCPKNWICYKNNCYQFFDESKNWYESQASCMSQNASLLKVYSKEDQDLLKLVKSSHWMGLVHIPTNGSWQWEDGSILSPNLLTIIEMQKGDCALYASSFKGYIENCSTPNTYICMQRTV
T8 sequence (chain, as listed by the source Y152V Y152V limits assumed): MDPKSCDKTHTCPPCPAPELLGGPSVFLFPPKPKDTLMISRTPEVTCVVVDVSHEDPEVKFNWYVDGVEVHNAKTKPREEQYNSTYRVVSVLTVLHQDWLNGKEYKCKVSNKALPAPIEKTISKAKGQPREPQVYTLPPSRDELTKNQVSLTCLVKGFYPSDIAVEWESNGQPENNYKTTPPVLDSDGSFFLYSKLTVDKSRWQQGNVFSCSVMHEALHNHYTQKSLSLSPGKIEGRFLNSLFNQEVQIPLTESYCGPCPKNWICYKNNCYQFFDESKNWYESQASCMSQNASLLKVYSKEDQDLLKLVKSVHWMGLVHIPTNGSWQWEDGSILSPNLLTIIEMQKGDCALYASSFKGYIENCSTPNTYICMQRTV
T5 sequence (chain, as listed by the source Y152T Y152T limits assumed): as the sequence (chain, as listed by the source Y152V Y152V limits assumed) above, with V312T counted along it
T6 sequence (chain, as listed by the source Y152L Y152L limits assumed): as the sequence (chain, as listed by the source Y152V Y152V limits assumed) above, with V312L counted along it
T1 sequence (chain, as listed by the source limits assumed): as the sequence (chain, as listed by the source Y152V Y152V limits assumed) above, with V312Y counted along it
T2 sequence (chain, as listed by the source Y152F Y199F Y152F Y199F limits assumed): as the sequence (chain, as listed by the source Y152V Y152V limits assumed) above, with V312F, Y359F counted along it
T7 sequence (chain, as listed by the source Y152A Y152A limits assumed): as the sequence (chain, as listed by the source Y152V Y152V limits assumed) above, with V312A counted along it
T4 sequence (chain, as listed by the source Y199F Y199F): as the sequence (chain, as listed by the source Y152S Y152S) above, with S310Y, Y357F counted along it
T11 sequence (chain, as listed by the source Y152L Y199F Y152L Y199F limits assumed): as the sequence (chain, as listed by the source Y152V Y152V limits assumed) above, with V312L, Y359F counted along it
T10 sequence (chain, as listed by the source Y152D Y199D Y152D Y199D limits assumed): as the sequence (chain, as listed by the source Y152V Y152V limits assumed) above, with V312D, Y359D counted along it
T9 sequence (chain, as listed by the source Y152E Y199E Y152E Y199E limits assumed): as the sequence (chain, as listed by the source Y152V Y152V limits assumed) above, with V312E, Y359E counted along it
T14 sequence (chain, as listed by the source Y152S Y199F Y152S Y199F limits assumed): as the sequence (chain, as listed by the source Y152V Y152V limits assumed) above, with V312S, Y359F counted along it
T13 sequence (chain, as listed by the source Y152A Y199F Y152A Y199F limits assumed): as the sequence (chain, as listed by the source Y152V Y152V limits assumed) above, with V312A, Y359F counted along it
T15 sequence (chain, as listed by the source Y152T Y199F Y152T Y199F limits assumed): as the sequence (chain, as listed by the source Y152V Y152V limits assumed) above, with V312T, Y359F counted along it
T12 sequence (chain, as listed by the source Y152V Y199F Y152V Y199F limits assumed): as the sequence (chain, as listed by the source Y152V Y152V limits assumed) above, with Y359F counted along it

B1: rituximab-MicAbody with ULBP2 variant AA (bispecific antibody, human IgG1, kappa)
heavy: not shown
light: QIVLSQSPAILSASPGEKVTMTCRASSSVSYIHWFQQKPGSSPKPWIYATSNLASGVPVRFSGSGSGTSYSLTISRVEAEDAATYYCQQWTSNPPTFGGGTKLEIKTVAAPSVFIFPPSDEQLKSGTASVVCLLNNFYPREAKVQWKVDNALQSGNSQESVTEQDSKDSTYSLSSTLTLSKADYEKHKVYACEVTHQGLSSPVTKSFNRGECAPTSSSGGGGSEPHSLSYDITVIPKFRPGPRWCAVQGQVDEKTFLHYDCGNKTVTPVSPLGKKLNVTTAWKAQNPVLREVVDILTEQLWDIQLENYTPKEPLTLQARMSCEQKAEGHSSGSWQFSFDGQIFLLFDSEKRMWTTVHPGARKMKEKWENDKVVATMFWSWSMGDCIGWLEDFLMGMDSTLEPS
notes: also called ULBP2.AA
The molecule B1 returned an EC50 with Fc-NKG2D.wt [1] of 655 nM. This counts as sub-micromolar.

B2: rituximab-MicAbody with ULBP2 variant AB (bispecific antibody, human IgG1, kappa)
heavy: not shown
light: QIVLSQSPAILSASPGEKVTMTCRASSSVSYIHWFQQKPGSSPKPWIYATSNLASGVPVRFSGSGSGTSYSLTISRVEAEDAATYYCQQWTSNPPTFGGGTKLEIKTVAAPSVFIFPPSDEQLKSGTASVVCLLNNFYPREAKVQWKVDNALQSGNSQESVTEQDSKDSTYSLSSTLTLSKADYEKHKVYACEVTHQGLSSPVTKSFNRGECAPTSSSGGGGSEPHSLSYDITVIPKFRPGPRWCAVQGQVDEKTFLHYDCGNKTVTPVSPLGKKLNVTTAWKAQNPVLREVVDILTEQLWDIQLENYTPKEPLTLQARMSCEQKAEGHSSGSWQFSFDGQIFLLFDSEKRMWTTVHPGARKMKEKWENDKVVATLMWQWSMGDCIGWLEDFLMGMDSTLEPS
notes: also called ULBP2.AB
In the experiment with Fc-NKG2D.wt [2], B2 gave an EC50 of 389 nM. That is a sub-micromolar value.

B3: rituximab-MicAbody with ULBP2 variant C (bispecific antibody, human IgG1, kappa)
heavy: not shown
light: QIVLSQSPAILSASPGEKVTMTCRASSSVSYIHWFQQKPGSSPKPWIYATSNLASGVPVRFSGSGSGTSYSLTISRVEAEDAATYYCQQWTSNPPTFGGGTKLEIKTVAAPSVFIFPPSDEQLKSGTASVVCLLNNFYPREAKVQWKVDNALQSGNSQESVTEQDSKDSTYSLSSTLTLSKADYEKHKVYACEVTHQGLSSPVTKSFNRGECAPTSSSGGGGSEPHSLSYDITVIPKFRPGPRWCAVQGQVDEKTFLHYDCGNKTVTPVSPLGKKLNVTTAWKAQNPVLREVVDILTEQLWDIQLENYTPKEPLTLQARMSCEQKAEGHSSGSWQFSFDGQIFLLFDSEKRMWTTVHPGARKMKEKWENDKVVATILWQTSMGDCIGWLEDFLMGMDSTLEPS
notes: also called ULBP2.C
In the experiment with Fc-NKG2D.wt [3], B3 had an EC50 of 130 nM.

B4: trastuzumab-MICwed MicAbody (bispecific antibody, human IgG1, kappa)
heavy: not shown
light: not shown
chain: EPHSLRYNLTVLSWDGSVQSGFLTEVHLDGQPFLRCDRQKCRAKPQGQWAEDVLGNKTWDRETRDLTGWGKDLRMTLAHIKDQKEGLHSLQEIRVCEIHEDNSTRSSQHFYYDGELFLSQNLETKEWTMPQSSRAQTLAMNVRNFLKEDAMETDTHYHAMHADCLQELRRYLKSGVVLRRTV
B4: the EC50 in experiment [4] worked out at 31.3 nM; in the experiment with Fc-NKG2D.wt [5], 0.007 nM; with Fc-eNKG2D2 (Y152S) [10], 4.16 nM; with Fc-eNKG2D3 (Y152T) [11], 4.33 nM; with Fc-eNKG2D14 (Y152L) [12], 9.39 nM; with Fc-eNKG2D4 (Y152V) [13], 4.84 nM. For the same molecule, the EC50 with Fc-NKG2D.wt [14] worked out at 0.0067 nM. The “percent of the maximal binding response of Fc-NKG2D.wt” value (from here on “percent”) came to 50% with Fc-eNKG2D2 (Y152S) [6]; 100% in the experiment with Fc-eNKG2D1 (Y199F); 50% with Fc-eNKG2D3 (Y152T) [7]; 50% with Fc-eNKG2D14 (Y152L) [8]; 50% in the experiment with Fc-NKG2D.Y152A; 50% with Fc-eNKG2D4 (Y152V) [9]. The binding result (in experiment [15]; in [16]; with Fc-eNKG2D6 (Y152L/Y199F) [17]) was “no binding (tested: 300 nM)” throughout.

B5: trastuzumab-MIC25 MicAbody (bispecific antibody, human IgG1, kappa)
heavy: not shown
light: not shown
chain: EPHSLRYNLTVLSWDGSVQSGFLTEVHLDGQPFLRCDRQKCRAKPQGQWAEDVLGNKTWDRETRDLTGWGKDLRMTLAHIKDQKEGLHSLQEIRVCEIHEDNSTRSSQHFYYDGELFLSQNLETLEWTMPQSSRAQTLAMNVRNFLKEDAMETDTHYHAMRADCLSELRRYLKSGVVLRRTV
Turning to B5, the EC50 with Fc-NKG2D.wt [5] is approximately 0.005 nM; in experiment [18], 0.046 nM; with Fc-eNKG2D2 (Y152S) [10], 0.0056 nM; with Fc-eNKG2D3 (Y152T) [11] it was 0.0056 nM; in the experiment with Fc-eNKG2D14 (Y152L) [12], 0.01 nM; with Fc-eNKG2D6 (Y152L/Y199F) [19] it was 0.37 nM. The results for the EC50 in the experiment with Fc-eNKG2D4 (Y152V) [13] and in the experiment with Fc-NKG2D.wt [14] were approximately 0.0043 nM and approximately 0.0039 nM, respectively. Further, the “percent” value in the experiment with Fc-eNKG2D2 (Y152S) [6] was 100%; with Fc-eNKG2D9 (Y152V/Y199F), 100%; with Fc-eNKG2D5 (Y152A/Y199F) it was 50%; with Fc-eNKG2D1 (Y199F), 100%; with Fc-eNKG2D3 (Y152T) [7], 100%; in the experiment with Fc-eNKG2D14 (Y152L) [8], 100%. For the same molecule, the “percent” value in the experiment with Fc-NKG2D.Y152A is 100%; in the experiment with Fc-eNKG2D7 (Y152S/Y199F) it was 50%; with Fc-eNKG2D8 (Y152T/Y199F), 50%; with Fc-eNKG2D4 (Y152V) [9], 100%. For the same molecule, the binding result in experiment [15] and in experiment [16] was “no binding (tested: 300 nM)” each time.
